Data taken from patent publication US20050186203A1.

Tests used:
Settings in all cases: remark: other sources report otherwise
[1] = molecular target: T1, purified full-length human IGF-I receptor (affinity purified; directly coated or biotinylated and captured on streptavidin) (human), P08069; assay: ELISA, hybridoma supernatant on plate-coated purified human IGF-I receptor, anti-mouse IgG Fc-HRP
[2] = molecular target: T2, human IGF-I receptor of human tumor cells (MCF-7, NCI-H838, SaOS-2 and other lines) (human), P08069; assay: displacement of pre-bound biotinylated IGF-I from MCF-7 cells by EM164 (10-100 µg/mL) at 4° C., 2 h; capture ELISA
[3] = molecular target: T2, human IGF-I receptor of human tumor …; assay: displacement of pre-bound biotinylated IGF-I from MCF-7 cells by EM164 (10-100 µg/mL) at 37° C., 30 min; capture ELISA
[4] = molecular target: T1, purified full-length human IGF-I …; assay: ELISA titration on biotinylated human IGF-I receptor captured on streptavidin; non-linear regression for one-site binding
[5] = molecular target: T1, purified full-length human IGF-I …; assay: ELISA titration on human IGF-I receptor, similar to that of the whole antibody

| absorbance units (ELISA, 405 nm) (absorbance units) [1] | % displacement of pre-bound biotinylated IGF-I [2] [%] | % displacement of pre-bound biotinylated IGF-I [3] [%] | Kd [4] [nM] | Kd [5] [nM] | Binder |
| --- | --- | --- | --- | --- | --- |
| 1.2 | 50 | 90 | 0.1 |  | murine anti-IGF-I receptor antibody EM164 (antibody, V domains shown, here or on the partner: biotinylated with PEO-maleimide-biotin reagent in the captured format) VH: QVQLQQSGAELVKPGASVKLSCKASGYTFTSYWMHWVKQRPGQGLEWIGEINPSNGRTNYNEKFKRKATLTVDKSSSTAYMQLSSLTSEDSAVYYFARGRPDYYGSSKWYFDVWGAGTTVTVS VL: DVLMTQTPLSLPVSLGDQASISCRSSQSIVHSNVNTYLEWYLQKPGQSPKLLIYKVSNRFSGVPDRFSGSGSGTDFTLRISRVEAEDLGIYYCFQGSHVPPTFGGGTKLEIKR |
|  |  |  |  | 0.3 | Fab fragment of EM164 antibody (Fab, V domains shown, here or on the partner: biotinylated with PEO-maleimide-biotin reagent in the captured format) VH: QVQLQQSGAELVKPGASVKLSCKASGYTFTSYWMHWVKQRPGQGLEWIGEINPSNGRTNYNEKFKRKATLTVDKSSSTAYMQLSSLTSEDSAVYYFARGRPDYYGSSKWYFDVWGAGTTVTVS VL: DVLMTQTPLSLPVSLGDQASISCRSSQSIVHSNVNTYLEWYLQKPGQSPKLLIYKVSNRFSGVPDRFSGSGSGTDFTLRISRVEAEDLGIYYCFQGSHVPPTFGGGTKLEIKR |
